± gives the standard deviation.
Test: collision cross section of modified peptide (TIMS, N2, iRT-aligned); higher = larger / more extended gas-phase ion
Description: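 1/K0 was aligned run-wise to spiked iRT peptides and converted to CCS in N2 (Mason-Schamp). Values are the mean of 1-3 technical replicates for the most abundant feature at each charge state.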

[1] = charge state: 2, modification: GlyGly (K)
[2] = charge state: 3, modification: GlyGly (K)
[3] = charge state: 2, modification: Acetyl (K)
[4] = charge state: 2, modification: Crotonyl
[5] = charge state: 2, modification: Formyl
[6] = charge state: 2, modification: Succinyl
[7] = charge state: 3, modification: Succinyl
[8] = charge state: 3, modification: Trimethyl (K)
[9] = charge state: 3, modification: Glutarylation
[10] = charge state: 2, modification: Glutarylation
[11] = charge state: 2, modification: Nitro (Y)
[12] = charge state: 3, modification: Methyl (R)
[13] = charge state: 2, modification: Trimethyl (K)
[14] = charge state: 2, modification: Butyryl
[15] = charge state: 2, modification: Dimethyl (K)
[16] = charge state: 3, modification: Dimethyl (K)
[17] = charge state: 2, modification: Propionyl
[18] = charge state: 2, modification: Malonyl
[19] = charge state: 2, modification: Biotin
[20] = charge state: 2, modification: hydroxyisobutyryl
[21] = charge state: 2, modification: Methyl (K)
[22] = charge state: 3, modification: Methyl (K)
[23] = charge state: 2, modification: HexNAc (ST)
[24] = charge state: 2, modification: Phospho (Y)

Sequence “LQDVSGQLSSSKK [_LQDVSGQLSSSK(GlyGly (K))K_]” has a collision cross section [1] of 438.61 ± 1.4 Å² and a collision cross section [2] of 490.05 ± 4.9 Å².

ITGKNQVTATK [_ITGK(Acetyl (K))NQVTATK_] gave a collision cross section [3] of 365.02 ± 0.94 Å².

Work on “SDSGKPYYYNSQTK [_SDSGK(Crotonyl)PYYYNSQTK_]” yielded a collision cross section [4] of 425.72 ± 0.29 Å².

In the case of “FLQEFYQDDELGKK [_FLQEFYQDDELGK(Formyl)K_]”, the collision cross section [5] is reported as 444.03 ± 0.77 Å².

Work on “AGQKLIDVNHYAK [_AGQK(Succinyl)LIDVNHYAK_]” yielded a collision cross section [6] of 435.59 ± 1.1 Å² and a collision cross section [7] of 483.35 ± 2.9 Å².

GSLEKGSPEDK [_GSLEK(Acetyl (K))GSPEDK_] showed a collision cross section [3] of 363.99 ± 0.16 Å².

Sequence “TQAYQDQKPGTSGLR [_TQAYQDQK(Trimethyl (K))PGTSGLR_]” has a collision cross section [8] of 476 ± 1.5 Å².

For “TFGKAAGPSLSHTSGGTQSK [_TFGK(Gluratylation)AAGPSLSHTSGGTQSK_]”, the collision cross section [9] was 518.15 ± 2 Å².

For VFSIISSEKELK [_VFSIISSEK(Succinyl)ELK_], the collision cross section [6] was 409.2 ± 4.2 Å².

Sequence “LQDVSGQLSSSKK [_LQDVSGQLSSSK(Gluratylation)K_]” has a collision cross section [10] of 404.29 ± 0.99 Å² and a collision cross section [9] of 482.96 ± 1.3 Å².

Work on “GYLGPEQLPDCLK [_GY(Nitro (Y))LGPEQLPDCLK_]” yielded a collision cross section [11] of 396.71 ± 0.18 Å².

For “DTPTSAGPNSFNKGK [_DTPTSAGPNSFNK(GlyGly (K))GK_]”, the collision cross section [1] was 413.5 ± 3.1 Å² and the collision cross section [2] was 464.37 ± 0.33 Å².

With “GRGAAAAGGPQR [_GR(Methyl (R))GAAAAGGPQR_]” the collision cross section (charge state: 2, modification: Methyl (R)) was 338.98 ± 2.7 Å² and the collision cross section [12] was 434.02 ± 3.5 Å².

LAEEENKAK [_LAEEENK(Trimethyl (K))AK_] gave a collision cross section [13] of 353.67 ± 0.62 Å² and a collision cross section [8] of 413.12 Å².

For VFSIISSEKELK [_VFSIISSEK(Formyl)ELK_], the collision cross section [5] was 402.55 ± 0.42 Å².

“LGVATVAKGVCGACK [_LGVATVAK(Succinyl)GVCGACK_]” showed a collision cross section [6] of 417.57 ± 0.55 Å².

Work on “PSVGSQSNQAGQGKR [_PSVGSQSNQAGQGK(Butyryl)R_]” yielded a collision cross section [14] of 416.92 ± 1.1 Å² and a collision cross section (charge state: 3, modification: Butyryl) of 475.14 ± 7.3 Å².

“DAEAAEATAEGALKAEK [_DAEAAEATAEGALK(Dimethyl (K))AEK_]” showed a collision cross section [15] of 461.24 ± 1.8 Å² and a collision cross section [16] of 536.26 ± 0.61 Å².

Work on GAEKTEVAEPR [_GAEK(Propionyl)TEVAEPR_] yielded a collision cross section [17] of 373.13 ± 6.5 Å².

“ATVASSTQKFQDLGVK [_ATVASSTQK(Malonyl)FQDLGVK_]” gave a collision cross section [18] of 440.93 ± 1 Å².

“LLIVSTTPYSEKDTK [_LLIVSTTPYSEK(Biotin)DTK_]” gave a collision cross section [19] of 480.64 Å².

In the case of “LGNDFHTNKR [_LGNDFHTNK(Gluratylation)R_]”, the collision cross section [10] is reported as 382 ± 0.1 Å² and the collision cross section [9] is reported as 434.71 ± 2.9 Å².

With “INNFSADIKDSK [_INNFSADIK(Gluratylation)DSK_]” the collision cross section [10] was 404.4 ± 4.7 Å² and the collision cross section [9] was 469.07 Å².

Work on LQLEIDQKK [_LQLEIDQK(Butyryl)K_] yielded a collision cross section [14] of 370.32 ± 1.2 Å².

For SPDEAYAIAKK [_SPDEAYAIAK(GlyGly (K))K_], the collision cross section [1] was 383.65 ± 0.88 Å² and the collision cross section [2] was 448.77 ± 3 Å².

In the case of “SLGEPAAGEGSAKR [_SLGEPAAGEGSAK(Gluratylation)R_]”, the collision cross section [10] is reported as 384.54 ± 0.66 Å² and the collision cross section [9] is reported as 479.54 ± 1 Å².

“GGFQNRGGGSGGGGNYR [_GGFQNR(Citrullination (R))GGGSGGGGNYR_]” gave a collision cross section (charge state: 2, modification: Citrullination (R)) of 403.21 ± 0.81 Å² and a collision cross section (charge state: 3, modification: Citrullination (R)) of 503.84 Å².

Sequence “DKALPLEAEVAPVK [_DK(Gluratylation)ALPLEAEVAPVK_]” has a collision cross section [10] of 424.54 ± 0.97 Å².

With LEQVEKELLR [_LEQVEK(Crotonyl)ELLR_] the collision cross section [4] was 389.19 ± 0.8 Å².

For ILDLKTGTVK [_ILDLK(GlyGly (K))TGTVK_], the collision cross section [1] was 373.1 ± 0.25 Å² and the collision cross section [2] was 439.15 ± 0.43 Å².

In the case of ITGKNQVTATK [_ITGK(Propionyl)NQVTATK_], the collision cross section [17] is reported as 368.3 ± 0.65 Å².

For “ASEALLKQLK [_ASEALLK(hydroxyisobutyryl)QLK_]”, the collision cross section [20] was 382.21 ± 0.28 Å².

“SITHSTVGSKGEK [_SITHSTVGSK(Trimethyl (K))GEK_]” showed a collision cross section [13] of 408.54 ± 2.1 Å² and a collision cross section [8] of 473.59 ± 1.5 Å².

Work on “HELQANCYEEVKDR [_HELQANCYEEVK(Methyl (K))DR_]” yielded a collision cross section [21] of 444.71 Å² and a collision cross section [22] of 527.11 ± 0.72 Å².

Sequence “GSGLGARGSSYGVTSTESYK [_GSGLGAR(Methyl (R))GSSYGVTSTESYK_]” has a collision cross section [12] of 519.94 ± 0.91 Å².

For ALASIDSKLNQAK [_ALASIDSK(Formyl)LNQAK_], the collision cross section [5] was 395.38 ± 0.55 Å².

AYDATHLVK [_AY(Nitro (Y))DATHLVK_] gave a collision cross section [11] of 358.23 ± 0.55 Å² and a collision cross section (charge state: 3, modification: Nitro (Y)) of 417.35 Å².

“DESFLGKLGGTLAR [_DESFLGK(Biotin)LGGTLAR_]” showed a collision cross section [19] of 424.81 Å² and a collision cross section (charge state: 3, modification: Biotin) of 506.47 Å².

Sequence “LSQEDPDYGIR [_LS(HexNAc (ST))QEDPDYGIR_]” has a collision cross section [23] of 396.72 ± 0.76 Å².

SKHLQEQLNELK [_SK(Succinyl)HLQEQLNELK_] gave a collision cross section [6] of 419.21 ± 1.5 Å² and a collision cross section [7] of 481.12 ± 2 Å².

Sequence “SDDESSQKDIK [_SDDESSQK(hydroxyisobutyryl)DIK_]” has a collision cross section [20] of 383.53 ± 0.55 Å².

IGNSYFKEEK [_IGNSYFK(Dimethyl (K))EEK_] gave a collision cross section [15] of 384.15 ± 0.26 Å² and a collision cross section [16] of 447.26 ± 3 Å².

In the case of “VYIASSSGSTAIKK [_VYIASSSGSTAIK(GlyGly (K))K_]”, the collision cross section [1] is reported as 437.45 ± 1.4 Å² and the collision cross section [2] is reported as 498.73 ± 3.9 Å².

In the case of “VPTTEKPTVTVNFR [_VPTTEK(Gluratylation)PTVTVNFR_]”, the collision cross section [10] is reported as 428.25 ± 0.47 Å² and the collision cross section [9] is reported as 516.1 ± 2.5 Å².

Work on “GNDISSGTVLSDYVGSGPPK [_GNDISSGTVLSDY(Nitro (Y))VGSGPPK_]” yielded a collision cross section [11] of 466.4 ± 0.42 Å².

Work on “SNEEGSEEKGPEVR [_SNEEGSEEK(Formyl)GPEVR_]” yielded a collision cross section [5] of 397.09 ± 0.55 Å².

Work on SITHSTVGSKGEK [_SITHSTVGSK(Formyl)GEK_] yielded a collision cross section [5] of 387.87 ± 1.4 Å² and a collision cross section (charge state: 3, modification: Formyl) of 435.39 ± 3 Å².

ISALQGKLSK [_ISALQGK(Methyl (K))LSK_] showed a collision cross section [21] of 354.46 ± 1.1 Å² and a collision cross section [22] of 434.86 ± 2.4 Å².

With TTEETSKPK [_TTEETSK(Malonyl)PK_] the collision cross section [18] was 336.7 ± 0.59 Å².

IQQELQTAKK [_IQQELQTAK(Malonyl)K_] showed a collision cross section [18] of 373.35 ± 6 Å².

In the case of “SLFFGGKGAPLQR [_SLFFGGK(GlyGly (K))GAPLQR_]”, the collision cross section [1] is reported as 414.92 ± 0.35 Å² and the collision cross section [2] is reported as 468.6 ± 1.1 Å².

IPPTYQIR [_IPPTY(Phospho (Y))QIR_] gave a collision cross section [24] of 350.25 ± 0.066 Å².

LQLEIDQKK [_LQLEIDQK(Trimethyl (K))K_] showed a collision cross section [13] of 370.49 ± 1.6 Å² and a collision cross section [8] of 433.51 ± 3.7 Å².

With “AAINQKLIETGER [_AAINQK(GlyGly (K))LIETGER_]” the collision cross section [1] was 412.96 ± 0.98 Å² and the collision cross section [2] was 477.22 ± 1.3 Å².

Work on “IHVQSSSDSSDEPAEKR [_IHVQSSSDSSDEPAEK(Dimethyl (K))R_]” yielded a collision cross section [16] of 519.62 ± 3.4 Å².

“ATVASSTQKFQDLGVK [_ATVASSTQK(Formyl)FQDLGVK_]” gave a collision cross section [5] of 442.05 ± 0.78 Å².

For “GAEKTEVAEPR [_GAEK(Gluratylation)TEVAEPR_]”, the collision cross section [10] was 362.79 ± 0.71 Å².

Sequence “GEVQVSDKER [_GEVQVSDK(Gluratylation)ER_]” has a collision cross section [10] of 368.37 ± 8.3 Å².

Work on “IISSIEQKEENK [_IISSIEQK(hydroxyisobutyryl)EENK_]” yielded a collision cross section [20] of 408.38 ± 0.3 Å² and a collision cross section (charge state: 3, modification: hydroxyisobutyryl) of 478.99 ± 4 Å².

With “QGNAVTLGDYYQGR [_QGNAVT(HexNAc (ST))LGDYYQGR_]” the collision cross section [23] was 432.99 ± 0.62 Å².

Sequence “LDINTNTYTSQDLK [_LDINTNTYTS(HexNAc (ST))QDLK_]” has a collision cross section [23] of 444.16 ± 0.035 Å².

In the case of LAEEENKAK [_LAEEENK(Malonyl)AK_], the collision cross section [18] is reported as 346.72 ± 0.74 Å².

For “DYSAPVNFISAGLKK [_DYSAPVNFISAGLK(Methyl (K))K_]”, the collision cross section [21] was 451.15 ± 3.1 Å² and the collision cross section [22] was 513.65 ± 3.5 Å².

Sequence “TQAYQDQKPGTSGLR [_TQAYQDQK(Formyl)PGTSGLR_]” has a collision cross section [5] of 427.08 ± 0.79 Å².

Work on “VDIDAPDVSIEGPDAKLK [_VDIDAPDVSIEGPDAK(Crotonyl)LK_]” yielded a collision cross section [4] of 471.19 ± 1.1 Å².

In the case of “TQAYQDQKPGTSGLR [_TQAYQDQK(Propionyl)PGTSGLR_]”, the collision cross section [17] is reported as 428.95 ± 1.4 Å².

For IGNSYFKEEK [_IGNSYFK(Formyl)EEK_], the collision cross section [5] was 368.62 ± 0.55 Å².

For “GYDVIAQAQSGTGK [_GY(Phospho (Y))DVIAQAQSGTGK_]”, the collision cross section [24] was 388.75 ± 0.77 Å².

Work on GSELQNYFTK [_GSELQNY(Phospho (Y))FTK_] yielded a collision cross section [24] of 373.39 ± 0.68 Å².

“GTISAPGKVVTAAAQAK [_GTISAPGK(Crotonyl)VVTAAAQAK_]” showed a collision cross section [4] of 447.33 ± 0.83 Å² and a collision cross section (charge state: 3, modification: Crotonyl) of 518.96 ± 1.2 Å².

Source: the supplement of paper PMC10598134
